Where a SMILES comes first, the peptide text is derived from it. Where no end group is shown, it is not given here. [ ]: non-standard residue; d: D form. Lys(Me2) = CN(C)CCCC[C@H](N)C(=O)O; d = 2'-deoxy (DNA); r = 2'-OH (RNA)
Tests used:
[1] = biological target: T1, GST-53BP1 fusion protein containing 53BP1 residues 1480-1626 (Homo sapiens, UniProt Q12888); test: Competition of binding of GST-53BP1 to histone H3 by histone H3 peptides (pull-down, immunoblot); conditions: 5 or 25 μg peptide; histones prepared from 293T cells; bound histone H3 detected by immunoblotting
T1 construct: a GST-53BP1 fusion protein containing 53BP1 residues 1480-1626 to histones prepared from 293T cells
From the text: FIG. 3 Binding of the tandem tudor domain of 53BP1 to histone H3 methylated on Lys79. a, GST-53BP1 fusion proteins containing residues 1157-1634 or 1480-1626 of human 53BP1 or plain GST protein were examined for binding to calf thymus histones (ct) or recombinant histones H3 and H4 (r). The proteins were resolved by SDS-PAGE and stained with Coomassie Brilliant Blue. The labels for H3, H2A, H2B and H4 refer to the input histones (Inp. Hist.). b, Identification of 53BP1-bound histones as full-length and N-terminally-cleaved histone H3. Input and GST-53BP1-bound histones were stained with Coomassie Brilliant Blue (C.B.) or immunoblotted (IB) with an antibody that recognizes the C-terminus (C-ter) of histone H3. c, Enrichment for methylation of Lys79 in histone H3 bound to GST-53BP1 as compared to input histone H3. Bound full-length histone H3 (aa 1-135), bound cleaved histone H3 (aa 28-135) and full-length histone H3 from the input fraction were analyzed by tandem mass spectrometry (MS/MS). For each sample, the identified peptides that include Lys79 are shown. K, K# and K## represent non-, mono- and di-methylated lysine, respectively. TIC, total ion current (an indicator of peptide abundance); dM, absolute difference of the experimental and theoretical masses; xCorr, cross correlation value of the experimental MS/MS spectrum versus the theoretical; Ions, number of matched ions in the experimental MS/MS spectrum versus the total number of theoretically possible ions. d, Competition of binding of 53BP1 to histone H3 by methylated histone H3 peptides. Binding of a GST-53BP1 fusion protein containing 53BP1 residues 1480-1626 to histones prepared from 293T cells was performed in the presence of no competitor peptide (−) or 5 or 25 μg histone H3 peptides. Bound histone H3 was detected by immunoblotting. Peptides spanning residues 74-83 of histone H3 had either non- (nm), mono- (mm) or di-methylated (dm) Lys79 (K79); peptides spanning residues 23-34 and 23-32 of histone H3 had dimethylated Lys27 (K27) and Arg26 (R26), respectively. e, Binding of a GST fusion protein containing S. cerevisiae Rad9 residues 750-917 to histone H3. Binding was examined as in a. f, Amino acid substitutions that disrupt recruitment of 53BP1 to sites of DNA DSBs also disrupt binding to histone H3. Binding was examined as in a. g, Crosslinking of ectopically-expressed His-tagged GFP-53BP1 to endogenous histone H3 in irradiated U2OS cells. Non-transfected U2OS cells (−) or cells transfected with His-tagged GFP-53BP1 fusion proteins having wild-type (wt) or mutant (Asp1521Arg, D1521R) 53BP1 were crosslinked with formaldehyde (fr) or were mock-crosslinked (m). Triton-X100 insoluble material (TrIM) from these cells was incubated with nickel-coated beads. Histone H3 in the TrIM and nickel bead-bound (NiBB) fractions was detected by immunoblotting after the crosslinks were reversed.
Glutathione S-transferase (GST) proteins (5 μg) fused to residues 1157-1634 or 1480-1626 of human 53BP1 or 750-917 of S. cerevisiae Rad9 were bound to glutathione beads (Pharmacia). The beads were then incubated for 1 h at 4° C. with histones in buffer containing 25 mM BTP [pH 6.8], 1 M KCl, and 0.5% Triton X-100. After 6 washes the bound material was resolved on SDS-polyacrylamide gels and either stained with Coomassie Brilliant Blue or immunoblotted with an antibody that recognizes the C-terminus of histone H3 (AbCam). […]

[2] = biological target: 53BP1 tandem tudor domain (Homo sapiens, UniProt Q12888); test: Isothermal titration calorimetry; format: binding; conditions: data not shown; read-out: dissociation constant
human Dot1L = biological target: T2, human Dot1L (Homo sapiens, UniProt Q8TEK3); test: Suppression of histone H3 methylation on Lys79 by siRNA (immunoblot); format: cell-based; conditions: U2OS cells, dot1L siRNA transfection (up to 3 rounds)
T2 construct: U2OS cells were transfected with control siRNA (luciferase; Dharmacon) or siRNA directed against human dot1L; endogenous in cells; host or cells: U2OS osteosarcoma cells

U2OS cells = test: 53BP1 IR-induced foci in irradiated U2OS cells after siRNA (immunofluorescence); format: cell-based, human; conditions: 9 Gy IR, 15 min later
Method: FIG. 4 Histone H3 methylated on Lys79 and changes in higher order chromatin structure recruit 53BP1 to sites of DNA DSBs and chromatin. a, Suppression of histone H3 methylation on Lys79 inhibits recruitment of 53BP1 to sites of DNA DSBs. The percentage of irradiated (9 Gy) U2OS cells without (w/o) 53BP1 foci was determined from 4 independent experiments of control (ctl) siRNA-treated cells or cells transfected once (1) or 3 consecutive times (3) with dot1L-specific siRNA. Bars indicate standard errors. […] Histones prepared from non-irradiated or irradiated (9 Gy) 293T cells were resolved by SDS-PAGE and stained with Coomassie Brilliant Blue (C.B.; top panel) or immunoblotted with antibodies that recognize the C-terminus (C-ter) of histone H3, histone H3 dimethylated on Lys79 (K79dm), histone H2AX and phosphorylated histone H2AX (γ-H2AX; middle panel). […] Bound histone H3 was detected by immunoblotting (IB; lower panel). c, Exposure of cells to hypotonic media slows the nuclear diffusion of 53BP1. […] To show differences in GFP-53BP1 fluorescence before and after bleaching, the post-bleach image was pseudocolored magenta and merged with the pre-bleach image (Diff. image). […]
3 days after the last siRNA transfection, the cells were exposed to 9 Gy IR and 53BP1 intracellular localization was monitored by immunofluorescence 15 min later^5.

T1 sequence (Q12888 1480-1626): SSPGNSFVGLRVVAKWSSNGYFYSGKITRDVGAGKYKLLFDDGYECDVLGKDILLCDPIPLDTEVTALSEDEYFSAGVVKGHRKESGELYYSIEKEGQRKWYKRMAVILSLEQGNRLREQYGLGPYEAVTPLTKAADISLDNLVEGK
T2 sequence (Q8TEK3 whole entry): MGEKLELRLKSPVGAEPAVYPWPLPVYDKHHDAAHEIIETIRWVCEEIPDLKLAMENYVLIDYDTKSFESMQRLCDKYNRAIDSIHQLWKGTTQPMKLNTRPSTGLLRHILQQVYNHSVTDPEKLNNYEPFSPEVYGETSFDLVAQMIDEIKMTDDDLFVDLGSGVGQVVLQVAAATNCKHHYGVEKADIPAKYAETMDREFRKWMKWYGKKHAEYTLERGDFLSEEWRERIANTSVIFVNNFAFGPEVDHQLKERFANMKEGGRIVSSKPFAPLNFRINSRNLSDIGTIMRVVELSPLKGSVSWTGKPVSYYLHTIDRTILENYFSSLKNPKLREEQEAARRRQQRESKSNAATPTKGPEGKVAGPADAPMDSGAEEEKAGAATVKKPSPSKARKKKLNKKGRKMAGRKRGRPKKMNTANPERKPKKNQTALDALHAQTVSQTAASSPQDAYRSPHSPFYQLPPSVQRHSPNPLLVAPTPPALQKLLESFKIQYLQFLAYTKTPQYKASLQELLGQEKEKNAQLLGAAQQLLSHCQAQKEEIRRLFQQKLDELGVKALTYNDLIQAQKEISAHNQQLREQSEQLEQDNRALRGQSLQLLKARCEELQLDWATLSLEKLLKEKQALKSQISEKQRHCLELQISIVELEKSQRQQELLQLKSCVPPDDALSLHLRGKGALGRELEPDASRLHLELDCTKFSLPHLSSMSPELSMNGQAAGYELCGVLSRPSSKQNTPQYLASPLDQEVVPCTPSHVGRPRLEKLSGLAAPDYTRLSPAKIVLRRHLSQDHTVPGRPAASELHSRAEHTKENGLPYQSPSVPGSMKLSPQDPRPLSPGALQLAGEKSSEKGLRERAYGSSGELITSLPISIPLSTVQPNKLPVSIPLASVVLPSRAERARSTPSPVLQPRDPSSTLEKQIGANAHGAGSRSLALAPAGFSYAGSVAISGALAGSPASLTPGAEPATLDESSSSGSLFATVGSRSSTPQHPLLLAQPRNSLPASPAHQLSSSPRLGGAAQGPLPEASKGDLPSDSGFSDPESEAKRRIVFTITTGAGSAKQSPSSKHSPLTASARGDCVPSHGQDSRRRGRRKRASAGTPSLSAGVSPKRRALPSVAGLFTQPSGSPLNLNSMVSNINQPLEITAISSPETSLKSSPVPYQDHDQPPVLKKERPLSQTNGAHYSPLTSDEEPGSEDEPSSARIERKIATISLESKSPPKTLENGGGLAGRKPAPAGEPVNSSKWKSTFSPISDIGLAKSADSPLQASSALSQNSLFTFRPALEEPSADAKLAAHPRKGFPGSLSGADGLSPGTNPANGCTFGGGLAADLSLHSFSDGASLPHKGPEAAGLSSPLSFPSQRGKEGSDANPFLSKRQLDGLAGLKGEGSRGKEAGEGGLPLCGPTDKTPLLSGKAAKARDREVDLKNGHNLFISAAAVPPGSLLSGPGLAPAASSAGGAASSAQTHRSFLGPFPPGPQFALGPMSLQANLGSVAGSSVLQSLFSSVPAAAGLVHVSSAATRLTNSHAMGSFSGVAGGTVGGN
Sequence of 53BP1 tandem tudor domain (Q12888 1484-1603 limits assumed): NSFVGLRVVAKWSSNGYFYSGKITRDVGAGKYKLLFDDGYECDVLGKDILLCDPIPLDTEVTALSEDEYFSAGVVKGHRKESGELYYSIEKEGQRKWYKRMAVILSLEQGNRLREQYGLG

For “monomethylated Lys79 peptide: peptide spanning residues 74-83 of histone H3 with mono-methylated Lys79 (IAQDFK(Me)TDLR)”, the “competition for binding of histone H3 to 53BP1” value (“competition for binding” for short) [1] was “competed with lower efficiency”.
“peptide with dimethylated Lys27: peptide spanning residues 23-34 of histone H3 with dimethylated Lys27 (KAARKSAPATGG; Lys27 dimethylated; UniProt P68431 24-35, looked up, fragment)” was tested, and the “competition for binding” value [1] was “competed with lower efficiency”.
With “peptide with dimethylated Arg26: peptide spanning residues 23-32 of histone H3 with dimethylated Arg26 (KAARKSAPAT; dimethylated Arg26; UniProt P68431 24-33, looked up, fragment)” the “competition for binding” value [1] was “competed with lower efficiency”.
For CC[C@H](C)[C@H](N)C(=O)N[C@@H](C)C(=O)N[C@@H](CCC(N)=O)C(=O)N[C@@H](CC(=O)O)C(=O)N[C@@H](Cc1ccccc1)C(=O)N[C@@H](CCCCN(C)C)C(=O)N[C@H](C(=O)N[C@@H](CC(=O)O)C(=O)N[C@@H](CC(C)C)C(=O)N[C@@H](CCCNC(=N)N)C(=O)O)[C@@H](C)O (H-IAQDF[Lys(Me2)]TDLR-OH; N-terminus and C-terminus assumed), the Kd [2] was less than 1 µM and the “competition for binding” value [1] was “competed for binding of histone H3 to 53BP1”.
“GCUCGCUAUGGAGAAUUACdTdT (guide GCUCGCUAUGGAGAAUUACTT; siRNA; sugars from the 5' end r19 d2, backbone not given here) [siRNA specific for human Dot1L, siRNA directed against human dot1L]” was tested, and the “methylation of histone H3 on Lys79” value (human Dot1L) was “suppressed” and the “recruitment of 53BP1 to sites of DNA DSBs” value (U2OS cells) was “suppressed”.
With “corresponding non-methylated peptide: peptide spanning residues 74-83 of histone H3 with non-methylated Lys79 (IAQDFKTDLR)” the “competition for binding” value [1] was “did not compete”.

Reference: patent US7303866B2, “Methods of identifying an agent that modulates an interaction between 53BP1 and histone H3, and uses thereof” (priority 2004, dated 2007)
